In patent publication US20020137055, “Method and apparatus for measurement of the effect of test compounds on signal transduction at the level of biological receptors” (published 2002) one finds binding signal data, which are given here for one molecule.

Common to all, as to conditions: protein: extract; tags: Cy5-labelled; expressed as ubiquitin fusion in Saccharomyces cerevisiae AF103 (YEpE10 plasmid); yeast extract preparation
The target of data set [1] is T1, human estrogen receptor (recombinant hER, 65 kDa) (Homo sapiens, UniProt P03372 P03372:1-595). Nature of the data set: evanescent fiber optic sensor; with 1e-6 M estrone; control 3.51. Here is the method: (§1) This solution comprised said calibration standard of component 6a. […] This receptor preparation was used as the calibration solution. Immediately after preparation it was pipetted in 135 μl aliquots into microcentrifuge tubes, snap frozen and stored at −80° C. They were not thawed again until they were used with the fiber sensor. Sample solutions of component 6a were similarly prepared, except that the dilution at the end with receptor buffer gave a total receptor concentration of […]. If the solution was to be used with an ERE fiber (component 1a type 2), then polydeoxyinosinic-deoxycytidylic acid sodium salt was added to the receptor buffer to prevent nonspecific binding to the ERE fiber. Solutions containing 4.4×10⁻¹⁰ M Cy5-tagged-estrogen-receptor solution and in addition to a predetermined amount of estrogen or estrogen mimic were created to test the impact of said estrogen or estrogen mimic.
T1 sequence (P03372 whole entry, one chain of several): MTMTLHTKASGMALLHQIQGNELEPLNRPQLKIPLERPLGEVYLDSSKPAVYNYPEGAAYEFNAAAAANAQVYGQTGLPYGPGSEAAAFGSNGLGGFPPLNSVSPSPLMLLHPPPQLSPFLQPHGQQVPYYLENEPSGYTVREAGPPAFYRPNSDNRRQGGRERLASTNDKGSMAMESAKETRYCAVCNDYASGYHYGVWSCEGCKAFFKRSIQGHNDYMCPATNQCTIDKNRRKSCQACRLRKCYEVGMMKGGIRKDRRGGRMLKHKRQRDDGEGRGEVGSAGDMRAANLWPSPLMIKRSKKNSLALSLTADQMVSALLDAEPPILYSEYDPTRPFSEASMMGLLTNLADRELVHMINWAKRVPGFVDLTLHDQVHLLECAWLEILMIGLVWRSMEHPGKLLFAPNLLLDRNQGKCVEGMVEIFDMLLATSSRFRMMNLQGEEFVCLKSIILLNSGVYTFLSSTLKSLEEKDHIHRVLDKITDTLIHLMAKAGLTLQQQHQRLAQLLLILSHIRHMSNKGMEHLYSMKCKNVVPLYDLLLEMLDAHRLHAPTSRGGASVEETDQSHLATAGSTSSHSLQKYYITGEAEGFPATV
(§2) 12) Using fiber sensors of component 1a type 2, and the foregoing procedure the S/C value was calculated for several different estrogens tested at 10⁻⁶ M concentration.

The target in data set [2] is T1, human estrogen receptor (recombinant …). Put plainly: evanescent fiber optic sensor; control, no ligand; 4.4e-10 M receptor; 500 mM KCl phosphate pH 7.5, poly(dI-dC). Here is the method: as §1, §2
For data set [3] the target is unchanged. Put plainly: evanescent fiber optic sensor; with 1e-6 M diethylstilbestrol; control 3.51. Here is the method:
as §1, §2

Data set [4] shares this target. Put plainly: evanescent fiber optic sensor; with 1e-6 M zearalenone; control 3.51. Here is the method:
as §1, §2

B1: ERE (Xenopus vitellogenin A2 estrogen response element) (dsDNA)
DNA 1: GTCCAAAGTCAGGTCACAGTGACCTGATCAAAGTT
DNA 2: AACTTTGATCAGGTCACTGTGACCTGACTTTGGAC
modifications: amine on the 5' G residue of one strand, covalently linked to optical fiber via GMBS
As for B1, the binding signal is 4.44 S/C ratio in data set [1], 3.51 S/C ratio in data set [2], 4.87 S/C ratio in data set [3] and 5.01 S/C ratio in data set [4].
